Values of other authors, collected in paper PMC3930637.

Biological target: HIV-1 capsid (CA) CA (Human immunodeficiency virus 1) (UniProt O93182)
Sequence (O93182 133-363): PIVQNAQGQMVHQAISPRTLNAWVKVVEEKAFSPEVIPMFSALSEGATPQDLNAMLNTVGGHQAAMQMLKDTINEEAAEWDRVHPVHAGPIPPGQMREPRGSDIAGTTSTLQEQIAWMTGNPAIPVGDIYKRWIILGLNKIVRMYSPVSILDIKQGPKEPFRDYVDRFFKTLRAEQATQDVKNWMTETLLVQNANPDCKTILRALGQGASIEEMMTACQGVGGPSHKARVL

Sequence of Nup358 cyclophilin homology domain (P49792 3067-3223): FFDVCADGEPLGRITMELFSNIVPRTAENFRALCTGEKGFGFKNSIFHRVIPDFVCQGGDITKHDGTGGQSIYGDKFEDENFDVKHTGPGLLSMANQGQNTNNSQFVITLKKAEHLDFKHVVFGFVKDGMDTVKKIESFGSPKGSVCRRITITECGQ

Substance: Nup358 cyclophilin homology domain (from UniProt P49792)
- Kd: 94 µM
